We go through 53 sequences from the supplement of paper PMC10567573.

± gives the standard deviation.

A short description of the series: protein stability index of a GFP-peptide fusion (GPS, HEK-293T) (PSI 1-6); higher = more stable. Conditions: c terminus: a fixed tail appended.
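Note: 24-mer peptide tiles fused after GFP, lentivirally expressed, FACS-sorted into six equal bins by GFP/DsRed ratio, decoded by Illumina sequencing, PSI is the read-weighted mean bin number.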

Consider TASKAIIEKEYQPHVIVSTTGPNP [ADD1], for which the protein stability index came out at 4.47 ± 0.21 (treatment: DMSO) and 4.65 ± 0.16 (treatment: MLN4924 1 uM, 8 h).

As for LSTSSSPSGTPTNLRRHVPDLESG [DLC1], the protein stability index by setting is: (treatment: DMSO) 4.65 ± 0.26; (treatment: MLN4924 1 uM, 8 h) 4.7 ± 0.21.

Sequence PTYKVMYKIVTAREWRCCPGHSGV [EMID1] yielded a protein stability index (treatment: DMSO) of 2.5 ± 0.57 and a protein stability index (treatment: MLN4924 1 uM, 8 h) of 2.89 ± 0.75.

DILEEEKIYAYPSNITSETGFRTI [TMEM192]: the protein stability index by setting is: (treatment: DMSO) 3.04 ± 0.33; (treatment: MLN4924 1 uM, 8 h) 3.4 ± 0.25.

With FPFSLLGLLALAIGLWGLAVKGSL [TSPAN10], the protein stability index (treatment: DMSO) turned out to be 3.33 ± 0.37 and the protein stability index (treatment: MLN4924 1 uM, 8 h) is 3.14 ± 0.27.

Consider PTRCLPGHKEEEDGEGAGPGEQGG [ESRRA], for which the protein stability index reads like this: (treatment: DMSO) 5.68 ± 0.3; (treatment: MLN4924 1 uM, 8 h) 5.38 ± 0.26.

Take RQHHHQSSFPGSLPQETNLTLKVC: the protein stability index stood at 2.89 ± 0.48 (treatment: DMSO) and 3.34 ± 0.56 (treatment: MLN4924 1 uM, 8 h).

Consider QEGLLDRCVSFQARFAEKEELMLV [HDAC6], for which the protein stability index was 2.44 ± 0.34 (treatment: DMSO) and 2.52 ± 0.53 (treatment: MLN4924 1 uM, 8 h).

As to AQNACSEHGATLAVIDSEKDMNFL [CD69], the protein stability index was 4.62 ± 0.29 (treatment: DMSO) and 4.78 ± 0.27 (treatment: MLN4924 1 uM, 8 h).

For FASGFKRAFKIKDFANTIPGHGGI [CDS1], the protein stability index runs as follows: (treatment: DMSO) 2.65 ± 0.43; (treatment: MLN4924 1 uM, 8 h) 2.47 ± 0.66.

VHKTKEQFGQDGPISVHCSAGVGR [PTPRD] showed a protein stability index (treatment: DMSO) of 4.02 ± 0.23 and a protein stability index (treatment: MLN4924 1 uM, 8 h) of 4.15 ± 0.25.

As for LPQVAEEISGPLTSANKITLVSSG [FLOT1], the protein stability index runs as follows: (treatment: DMSO) 3.78 ± 0.23; (treatment: MLN4924 1 uM, 8 h) 4.23 ± 0.21.

For the sequence LDPSSGAIHVLGPIDFEESRFYEI [PCDHGC5], the protein stability index is, setting by setting: (treatment: DMSO) 2.27 ± 0.2; (treatment: MLN4924 1 uM, 8 h) 2.25 ± 0.26.

PSSPGRFTKETTQKNFNNLYGTKG [TRIM29] gave a protein stability index (treatment: DMSO) of 4.2 ± 0.27 and a protein stability index (treatment: MLN4924 1 uM, 8 h) of 4.37 ± 0.085.

As for HVAVEHQLPPASRCVLVFEQVRFL [SOAT2], the protein stability index by setting is: (treatment: DMSO) 2.66 ± 0.86; (treatment: MLN4924 1 uM, 8 h) 2.36 ± 0.61.

As for EITEELPSSQLMPVKKQLQGASWE [ZNF396], the protein stability index (treatment: DMSO) was determined as 4.09 ± 0.14 and the protein stability index (treatment: MLN4924 1 uM, 8 h) amounted to 4.38 ± 0.22.

Turning to PARDYSQYYRTIEELQNKILTATV [KRT17], the protein stability index worked out at 2.28 ± 0.2 (treatment: DMSO) and 2.34 ± 0.21 (treatment: MLN4924 1 uM, 8 h).

Turning to QPPQSQAQVPPAAPHHHHHHSHSG [PLK2], the protein stability index stood at 4.71 ± 0.2 (treatment: DMSO) and 4.64 ± 0.13 (treatment: MLN4924 1 uM, 8 h).

Take HECKLTQEILELIDREVDLMMRGV [IQUB]: the protein stability index (treatment: DMSO) worked out at 2.88 ± 0.2 and the protein stability index (treatment: MLN4924 1 uM, 8 h) stood at 3.17 ± 0.67.

LYVDSLFFLRGRLDQLLRHVMNPL [PRAME]: the protein stability index by setting is: (treatment: DMSO) 3.38 ± 0.99; (treatment: MLN4924 1 uM, 8 h) 1.89 ± 0.53.

For the sequence PPPDVTQLTPPSHDLTDNIFPRLV [ANKRD17], the protein stability index was determined as 4.04 ± 0.34 (treatment: DMSO) and 4.06 ± 0.16 (treatment: MLN4924 1 uM, 8 h).

With VRHEGTRTLWSGLPATLVMTVPAT [SLC25A39], the protein stability index runs as follows: (treatment: DMSO) 2.33 ± 0.18; (treatment: MLN4924 1 uM, 8 h) 2.27 ± 0.13.

Consider LVALKCTCCYFKFIIEYYNIRPAD [FBXO34], for which the protein stability index is, setting by setting: (treatment: DMSO) 2.69 ± 0.38; (treatment: MLN4924 1 uM, 8 h) 2.81 ± 0.9.

On to AQIDQYVGLVTNQLSHIKAKIRAK [RTN2], for which the protein stability index (treatment: DMSO) was found to be 2.7 ± 0.3 and the protein stability index (treatment: MLN4924 1 uM, 8 h) came to 2.75 ± 0.28.

For the sequence QEDSGLRDHSVRVLISNHVTPFDH [AUP1], the protein stability index came to 3.9 ± 0.12 (treatment: DMSO) and 3.67 ± 0.29 (treatment: MLN4924 1 uM, 8 h).

EPGAGLGIGDMAFEGDMGAAGGDG [PSD2]: the protein stability index reads like this: (treatment: DMSO) 5.72 ± 0.23; (treatment: MLN4924 1 uM, 8 h) 5.61 ± 0.41.

For SLTRSNRHRLRWHSFQSSHRPSLN [DLC1], the protein stability index by setting is: (treatment: DMSO) 3.05 ± 0.14; (treatment: MLN4924 1 uM, 8 h) 3.41 ± 0.31.

As to IMDTVGNIWVCYASYVVFRIIYML [SLC19A2], the protein stability index reads like this: (treatment: DMSO) 2.83 ± 0.41; (treatment: MLN4924 1 uM, 8 h) 3.12 ± 0.53.

For LPVNSPMNKGDTEVMKCIVEVISD [CHGA], the protein stability index runs as follows: (treatment: DMSO) 3.22 ± 0.2; (treatment: MLN4924 1 uM, 8 h) 3.27 ± 0.19.

Take GEAGWGAGEGRLGHKRKQPLPKRV [FOXJ1]: the protein stability index runs as follows: (treatment: DMSO) 4.5 ± 0.16; (treatment: MLN4924 1 uM, 8 h) 4.59 ± 0.26.

As to PQPNYADTLISQESCEKNDPLSLL [PCDHGA10], the protein stability index runs as follows: (treatment: DMSO) 4.83 ± 0.11; (treatment: MLN4924 1 uM, 8 h) 4.85 ± 0.17.

For the sequence HAVVGVATALAPLQTDHYAALLGS [SPSB2], the protein stability index runs as follows: (treatment: DMSO) 2.37 ± 0.18; (treatment: MLN4924 1 uM, 8 h) 2.29 ± 0.39.

On to LQNTYMGYLDYRKKAIKDLGISPS [GLT8D2], for which the protein stability index (treatment: DMSO) is 2.64 ± 0.24 and the protein stability index (treatment: MLN4924 1 uM, 8 h) worked out at 2.91 ± 0.16.

In the case of GFTKEQQRLGIPKDPRQWTETHVR [ETS1], the protein stability index is 3.25 ± 0.58 (treatment: DMSO) and 3.27 ± 0.25 (treatment: MLN4924 1 uM, 8 h).

In turn, EANEEFALRVQQLVAKELGQTGTR [AUP1] yielded a protein stability index (treatment: DMSO) of 3.87 ± 0.35 and a protein stability index (treatment: MLN4924 1 uM, 8 h) of 3.99 ± 0.45.

With IPLEQGSSCNGPGQTTGHPYYLRS [FAN1], the protein stability index runs as follows: (treatment: DMSO) 5.05 ± 0.38; (treatment: MLN4924 1 uM, 8 h) 5 ± 0.18.

For the sequence LPRSEDDDCDDDDDDAQILPSPVQ [DRICH1], the protein stability index is 5.5 ± 0.11 (treatment: DMSO) and 5.53 ± 0.27 (treatment: MLN4924 1 uM, 8 h).

On to SYGPVILVVLVVAVVASSVNSYYS [TOR1AIP2], for which the protein stability index was found to be 3.57 ± 0.3 (treatment: DMSO) and 2.85 ± 0.095 (treatment: MLN4924 1 uM, 8 h).

With YSLVTHIPAGARDIQIVERKKSAD [ADAMTSL2], the protein stability index is, setting by setting: (treatment: DMSO) 4.37 ± 0.22; (treatment: MLN4924 1 uM, 8 h) 4.67 ± 0.41.

As for DPNFKMEHQNKRSPLHAAAEAGHV [EHMT1], the protein stability index by setting is: (treatment: DMSO) 4.89 ± 0.22; (treatment: MLN4924 1 uM, 8 h) 5.04 ± 0.18.

In the case of VSDITDLELLDKIERSKIVSTMRC [PPEF2], the protein stability index is 3.69 ± 0.27 (treatment: DMSO) and 3.52 ± 0.23 (treatment: MLN4924 1 uM, 8 h).

As to DRMARPSGRSGHNTRGTGSSSSGV [CSNK1G3], the protein stability index is 4.87 ± 0.13 (treatment: DMSO) and 5.03 ± 0.098 (treatment: MLN4924 1 uM, 8 h).

Turning to VFDNAIRAALISRRHLQFWKSHLR [RHOBTB2], the protein stability index reads like this: (treatment: DMSO) 2.23 ± 0.38; (treatment: MLN4924 1 uM, 8 h) 2.1 ± 0.3.

As to SGSAVSTAPQQKPIGKISKNKKKK [SRPK2], the protein stability index is, setting by setting: (treatment: DMSO) 4.77 ± 0.43; (treatment: MLN4924 1 uM, 8 h) 5.07 ± 0.2.

Consider ILTATVDNANILLQIDNARLAADD [KRT17], for which the protein stability index reads like this: (treatment: DMSO) 3.29 ± 0.075; (treatment: MLN4924 1 uM, 8 h) 3.26 ± 0.19.

As to GLLSLLLPETLNSPLLETFSDLQV [SLC22A15], the protein stability index runs as follows: (treatment: DMSO) 2.47 ± 0.67; (treatment: MLN4924 1 uM, 8 h) 2.68 ± 0.68.

Regarding GNDSFQLQVTEDVNSSIKTFFCPN [CLCN6], the protein stability index is, setting by setting: (treatment: DMSO) 3.54 ± 0.31; (treatment: MLN4924 1 uM, 8 h) 3.6 ± 0.26.

With RTVGFEEQASAFQEQEIDGKSLLL [SAMD13], the protein stability index is, setting by setting: (treatment: DMSO) 4.55 ± 0.2; (treatment: MLN4924 1 uM, 8 h) 4.85 ± 0.18.

For the sequence GRGLLRWDSFSAWLHCVCVVGFDL [DENND6A], the protein stability index worked out at 2.77 ± 0.58 (treatment: DMSO) and 2.83 ± 0.69 (treatment: MLN4924 1 uM, 8 h).

Turning to IMTDLYYLSQTDGAGDWREKEAKD [FUT8], the protein stability index is, setting by setting: (treatment: DMSO) 3.59 ± 0.42; (treatment: MLN4924 1 uM, 8 h) 3.69 ± 0.32.

Take SDQVKISEEALRADGFGDNPFYHC [SAT2]: the protein stability index (treatment: DMSO) amounted to 4.16 ± 0.28 and the protein stability index (treatment: MLN4924 1 uM, 8 h) came to 4.25 ± 0.24.

As for CSNLTPNVPNVCRMYCSDLLNPNL [SPACA3], the protein stability index reads like this: (treatment: DMSO) 2.62 ± 0.55; (treatment: MLN4924 1 uM, 8 h) 2.42 ± 0.45.

With SEIEMAKAQRDYELKKAAYDIEVN [FLOT1], the protein stability index came to 4.89 ± 0.29 (treatment: DMSO) and 5.02 ± 0.17 (treatment: MLN4924 1 uM, 8 h).
